# T1: Mcm4 (Saccharomyces cerevisiae, UniProt P30665 1-933)
# T1 construct: Mcm4, Saccharomyces cerevisiae, full length; Subunit of m2, written alone for the contacts seen in the cryo-EM structures
# T1 sequence (looked up): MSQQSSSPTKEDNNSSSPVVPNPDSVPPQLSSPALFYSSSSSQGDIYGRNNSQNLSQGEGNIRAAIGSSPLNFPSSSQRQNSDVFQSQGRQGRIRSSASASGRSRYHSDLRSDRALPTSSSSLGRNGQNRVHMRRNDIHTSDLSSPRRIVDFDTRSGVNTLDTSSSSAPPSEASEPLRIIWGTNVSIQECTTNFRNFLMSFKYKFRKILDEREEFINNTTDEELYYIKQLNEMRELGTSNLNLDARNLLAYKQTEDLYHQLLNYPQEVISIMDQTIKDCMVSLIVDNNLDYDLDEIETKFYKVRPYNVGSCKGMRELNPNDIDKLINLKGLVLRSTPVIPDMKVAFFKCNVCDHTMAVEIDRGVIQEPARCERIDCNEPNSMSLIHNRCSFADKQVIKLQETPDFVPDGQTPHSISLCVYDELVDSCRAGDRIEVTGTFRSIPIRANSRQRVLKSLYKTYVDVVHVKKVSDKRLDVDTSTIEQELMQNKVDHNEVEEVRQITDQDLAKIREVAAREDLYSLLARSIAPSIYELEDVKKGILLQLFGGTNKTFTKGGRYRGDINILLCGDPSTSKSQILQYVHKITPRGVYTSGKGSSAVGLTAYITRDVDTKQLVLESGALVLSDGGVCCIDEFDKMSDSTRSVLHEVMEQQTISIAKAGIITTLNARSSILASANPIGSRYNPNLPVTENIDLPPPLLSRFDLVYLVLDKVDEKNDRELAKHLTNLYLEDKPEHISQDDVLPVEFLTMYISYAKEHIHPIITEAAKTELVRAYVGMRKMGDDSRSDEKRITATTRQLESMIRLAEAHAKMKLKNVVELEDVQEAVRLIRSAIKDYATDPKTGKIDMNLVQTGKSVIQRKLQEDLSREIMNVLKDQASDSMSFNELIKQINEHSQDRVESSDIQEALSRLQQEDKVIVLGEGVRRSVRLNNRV
# Legend:
# Experiment in all cases: cryo-EM structure; MD-(ATPγS): 250 nM DH released from beads by AluI + 750 nM DDK, 10 min 24 °C, buffer C with 3 mM ATPγS; GraFix glycerol gradient with glutaraldehyde; states I-III
# Details in all cases: both partners purified
# Mcm4 = biological target: T1, Mcm4
# Mcm3 = biological target: T2, Mcm3 (Saccharomyces cerevisiae, UniProt P24279 1-971)
# T2 construct: Mcm3, Saccharomyces cerevisiae, full length; Subunit of m2, written alone for the contacts seen in the cryo-EM structures
# MCM2-7 double hexamer = biological target: T3, MCM2-7 double hexamer (Saccharomyces cerevisiae, UniProt P29469 1-868; P24279 1-971; P30665 1-933; P29496 1-775; P53091 1-1017; P38132 …)
# T3 construct: Mcm2, Saccharomyces cerevisiae, full length; Mcm3, Saccharomyces cerevisiae, full length; Mcm4, Saccharomyces cerevisiae, full length; Mcm5, Saccharomyces cerevisiae, full length; Mcm6, Saccharomyces cerevisiae, full length; Mcm7, Saccharomyces cerevisiae, full length; Two head-to-head MCM2-7 hexamers assembled on origin DNA; becomes (thio-)phosphorylated by DDK on Mcm2, Mcm4, Mcm6 (and Mcm7) …
# T3 sequence (P29469 whole entry, chain 1 of 4): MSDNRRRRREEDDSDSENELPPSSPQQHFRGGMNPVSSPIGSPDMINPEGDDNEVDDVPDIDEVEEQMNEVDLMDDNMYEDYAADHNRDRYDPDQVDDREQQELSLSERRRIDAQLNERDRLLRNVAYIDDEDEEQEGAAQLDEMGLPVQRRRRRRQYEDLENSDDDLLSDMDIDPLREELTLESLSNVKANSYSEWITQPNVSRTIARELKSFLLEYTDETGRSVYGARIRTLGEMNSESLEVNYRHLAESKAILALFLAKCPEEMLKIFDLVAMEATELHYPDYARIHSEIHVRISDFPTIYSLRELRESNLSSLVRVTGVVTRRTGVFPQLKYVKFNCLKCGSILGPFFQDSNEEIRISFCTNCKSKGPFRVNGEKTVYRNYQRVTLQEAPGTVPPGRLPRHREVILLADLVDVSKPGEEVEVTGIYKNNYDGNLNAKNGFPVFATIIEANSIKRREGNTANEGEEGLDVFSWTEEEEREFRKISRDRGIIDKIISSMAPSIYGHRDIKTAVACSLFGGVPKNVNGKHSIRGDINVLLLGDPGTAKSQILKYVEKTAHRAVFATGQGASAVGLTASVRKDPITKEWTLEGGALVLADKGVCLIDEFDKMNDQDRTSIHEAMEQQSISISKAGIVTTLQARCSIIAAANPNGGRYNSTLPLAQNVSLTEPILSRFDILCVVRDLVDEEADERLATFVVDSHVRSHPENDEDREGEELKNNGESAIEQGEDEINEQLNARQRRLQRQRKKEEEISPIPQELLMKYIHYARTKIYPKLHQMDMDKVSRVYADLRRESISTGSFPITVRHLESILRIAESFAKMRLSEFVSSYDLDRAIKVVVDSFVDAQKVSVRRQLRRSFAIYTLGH
# T3 sequence (P24279 whole entry, chain 2 of 4): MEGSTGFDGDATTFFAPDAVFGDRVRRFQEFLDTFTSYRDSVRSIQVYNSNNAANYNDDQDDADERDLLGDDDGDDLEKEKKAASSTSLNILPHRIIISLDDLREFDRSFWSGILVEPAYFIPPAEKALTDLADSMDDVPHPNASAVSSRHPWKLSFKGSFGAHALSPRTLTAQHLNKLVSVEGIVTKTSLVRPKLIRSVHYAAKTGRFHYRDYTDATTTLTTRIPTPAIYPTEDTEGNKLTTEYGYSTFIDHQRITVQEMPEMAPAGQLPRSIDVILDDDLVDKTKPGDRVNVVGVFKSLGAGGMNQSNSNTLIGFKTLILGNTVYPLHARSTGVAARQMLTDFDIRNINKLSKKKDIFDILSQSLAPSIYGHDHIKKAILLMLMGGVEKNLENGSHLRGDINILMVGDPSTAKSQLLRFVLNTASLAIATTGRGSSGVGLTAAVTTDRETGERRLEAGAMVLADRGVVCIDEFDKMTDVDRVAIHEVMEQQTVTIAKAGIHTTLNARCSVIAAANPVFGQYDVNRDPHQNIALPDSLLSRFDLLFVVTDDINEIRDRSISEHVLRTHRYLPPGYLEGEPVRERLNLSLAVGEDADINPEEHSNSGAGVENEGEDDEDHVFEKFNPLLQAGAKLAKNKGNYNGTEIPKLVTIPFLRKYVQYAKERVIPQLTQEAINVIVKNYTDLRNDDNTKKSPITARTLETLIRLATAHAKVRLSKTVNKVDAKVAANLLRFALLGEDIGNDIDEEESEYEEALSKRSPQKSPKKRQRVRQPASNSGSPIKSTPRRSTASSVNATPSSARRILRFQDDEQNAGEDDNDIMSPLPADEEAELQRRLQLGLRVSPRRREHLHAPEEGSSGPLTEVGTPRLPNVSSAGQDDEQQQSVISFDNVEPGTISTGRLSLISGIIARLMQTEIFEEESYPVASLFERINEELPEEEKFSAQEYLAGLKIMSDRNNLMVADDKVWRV
# T3 sequence (P29496 whole entry, chain 4 of 4): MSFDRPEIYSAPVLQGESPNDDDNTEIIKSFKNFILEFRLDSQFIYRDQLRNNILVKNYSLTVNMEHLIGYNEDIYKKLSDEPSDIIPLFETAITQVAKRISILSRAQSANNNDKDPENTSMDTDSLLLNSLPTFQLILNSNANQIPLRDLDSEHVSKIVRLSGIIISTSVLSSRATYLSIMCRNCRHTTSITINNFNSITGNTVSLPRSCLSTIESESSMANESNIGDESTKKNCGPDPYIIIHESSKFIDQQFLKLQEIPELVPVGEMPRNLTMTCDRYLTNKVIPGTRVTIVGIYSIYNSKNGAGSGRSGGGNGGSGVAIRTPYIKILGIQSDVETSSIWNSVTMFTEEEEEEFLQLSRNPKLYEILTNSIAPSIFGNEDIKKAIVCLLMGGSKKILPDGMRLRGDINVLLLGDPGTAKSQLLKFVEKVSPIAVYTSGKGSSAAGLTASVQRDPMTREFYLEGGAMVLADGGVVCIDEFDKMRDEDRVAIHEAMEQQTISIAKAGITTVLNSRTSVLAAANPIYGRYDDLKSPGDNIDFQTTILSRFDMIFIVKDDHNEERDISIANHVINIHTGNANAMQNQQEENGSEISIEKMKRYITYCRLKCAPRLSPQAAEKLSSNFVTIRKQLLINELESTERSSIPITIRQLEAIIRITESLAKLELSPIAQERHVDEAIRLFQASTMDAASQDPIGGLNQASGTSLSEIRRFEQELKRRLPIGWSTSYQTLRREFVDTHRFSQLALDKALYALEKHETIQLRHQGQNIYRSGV
# T3 sequence (P53091 whole entry, chain 5 of 4): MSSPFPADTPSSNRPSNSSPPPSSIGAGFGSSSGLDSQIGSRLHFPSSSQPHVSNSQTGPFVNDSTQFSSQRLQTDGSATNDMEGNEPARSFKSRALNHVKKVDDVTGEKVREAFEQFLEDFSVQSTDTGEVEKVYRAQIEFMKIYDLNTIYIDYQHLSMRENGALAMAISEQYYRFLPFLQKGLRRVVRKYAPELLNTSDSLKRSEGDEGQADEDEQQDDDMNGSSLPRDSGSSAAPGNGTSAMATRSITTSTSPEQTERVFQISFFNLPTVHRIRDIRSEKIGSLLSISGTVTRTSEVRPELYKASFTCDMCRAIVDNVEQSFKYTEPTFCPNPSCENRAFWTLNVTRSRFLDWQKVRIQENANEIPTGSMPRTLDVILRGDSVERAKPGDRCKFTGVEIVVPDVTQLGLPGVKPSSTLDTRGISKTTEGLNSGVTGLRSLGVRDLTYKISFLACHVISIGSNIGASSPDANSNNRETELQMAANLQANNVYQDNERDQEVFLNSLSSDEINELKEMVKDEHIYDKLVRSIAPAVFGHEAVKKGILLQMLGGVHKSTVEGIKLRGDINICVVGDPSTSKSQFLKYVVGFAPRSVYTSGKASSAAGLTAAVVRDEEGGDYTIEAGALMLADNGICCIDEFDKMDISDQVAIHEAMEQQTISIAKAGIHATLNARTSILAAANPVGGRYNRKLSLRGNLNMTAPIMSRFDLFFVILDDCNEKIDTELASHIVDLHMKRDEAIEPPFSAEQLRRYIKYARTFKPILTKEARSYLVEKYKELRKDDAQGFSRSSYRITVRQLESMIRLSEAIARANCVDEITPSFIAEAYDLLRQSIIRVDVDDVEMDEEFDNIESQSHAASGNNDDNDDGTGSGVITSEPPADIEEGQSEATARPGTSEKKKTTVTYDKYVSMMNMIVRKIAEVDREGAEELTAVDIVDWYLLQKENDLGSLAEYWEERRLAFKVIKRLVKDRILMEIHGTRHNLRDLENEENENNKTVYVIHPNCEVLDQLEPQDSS
# T2 sequence (P24279 whole entry): as the sequence (P24279 whole entry, chain 2 of 4) above
binding result (Mcm4),binding result (Mcm3),stoichiometry N (MCM2-7 double hexamer),Binder
binds,binds,,"Mcm7 (natural protein, Saccharomyces cerevisiae, UniProt P38132 1-845, looked up, Mcm7, Saccharomyces cerevisiae, full length; Subunit of m2, written alone for the contacts seen in the cryo-EM structures) MSAALPSIQLPVDYNNLFNEITDFLVTFKQDTLSSDATRNENEDENLDAENIEQHLLEKGPKYMAMLQKVANRELNSVIIDLDDILQYQNEKFLQGTQADDLVSAIQQNANHFTELFCRAIDNNMPLPTKEIDYKDDVLDVILNQRRLRNERMLSDRTNEIRSENLMDTTMDPPSSMNDALREVVEDETELFPPNLTRRYFLYFKPLSQNCARRYRKKAISSKPLSVRQIKGDFLGQLITVRGIITRVSDVKPAVEVIAYTCDQCGYEVFQEVNSRTFTPLSECTSEECSQNQTKGQLFMSTRASKFSAFQECKIQELSQQVPVGHIPRSLNIHVNGTLVRSLSPGDIVDVTGIFLPAPYTGFKALKAGLLTETYLEAQFVRQHKKKFASFSLTSDVEERVMELITSGDVYNRLAKSIAPEIYGNLDVKKALLLLLVGGVDKRVGDGMKIRGDINVCLMGDPGVAKSQLLKAICKISPRGVYTTGKGSSGVGLTAAVMKDPVTDEMILEGGALVLADNGICCIDEFDKMDESDRTAIHEVMEQQTISISKAGINTTLNARTSILAAANPLYGRYNPRLSPLDNINLPAALLSRFDILFLMLDIPSRDDDEKLAEHVTYVHMHNKQPDLDFTPVEPSKMREYIAYAKTKRPVMSEAVNDYVVQAYIRLRQDSKREMDSKFSFGQATPRTLLGIIRLSQALAKLRLADMVDIDDVEEALRLVRVSKESLYQETNKSKEDESPTTKIFTIIKKMLQETGKNTLSYENIVKTVRLRGFTMLQLSNCIQEYSYLNVWHLINEGNTLKFVDDGTMDTDQEDSLVSTPKLAPQTTASANVSAQDSDIDLQDA"
,,2 DDK per MCM2-7 double hexamer,"Dbf4-dependent Cdc7 kinase (DDK), wild type (complex, Saccharomyces cerevisiae, Cdc7 serine/threonine kinase, Saccharomyces cerevisiae, full length; Dbf4 (dumbbell former 4), Saccharomyces cerevisiae, full length; An MBP tag was cleaved with PreScission Protease; Treated with lambda phosphatase during purification; autophosphorylates (thio-phosphorylates with ATPγS) in the assays; also called Cdc7-Dbf4; WT DDK; source: budding yeast cells, purified (amylose resin, lambda …)) chain 1: MTSKTKNIDDIPPEIKEEMIQLYHDLPGIENEYKLIDKIGEGTFSSVYKAKDITGKITKKFASHFWNYGSNYVALKKIYVTSSPQRIYNELNLLYIMTGSSRVAPLCDAKRVRDQVIAVLPYYPHEEFRTFYRDLPIKGIKKYIWELLRALKFVHSKGIIHRDIKPTNFLFNLELGRGVLVDFGLAEAQMDYKSMISSQNDYDNYANTNHDGGYSMRNHEQFCPCIMRNQYSPNSHNQTPPMVTIQNGKVVHLNNVNGVDLTKGYPKNETRRIKRANRAGTRGFRAPEVLMKCGAQSTKIDIWSVGVILLSLLGRRFPMFQSLDDADSLLELCTIFGWKELRKCAALHGLGFEASGLIWDKPNGYSNGLKEFVYDLLNKECTIGTFPEYSVAFETFGFLQQELHDRMSIEPQLPDPKTNMDAVDAYELKKYQEEIWSDHYWCFQVLEQCFEMDPQKRSSAEDLLKTPFFNELNENTYLLDGESTDEDDVVSSSEADLLDKDVLLISE chain 2: MVSPTKMIIRSPLKETDTNLKHNNGIAASTTAAGHLNVFSNDNNCNNNNTTESFPKKRSLERLELQQQQHLHEKKRARIERARSIEGAVQVSKGTGLKNVEPRVTPKELLEWQTNWKKIMKRDSRIYFDITDDVEMNTYNKSKMDKRRDLLKRGFLTLGAQITQFFDTTVTIVITRRSVENIYLLKDTDILSRAKKNYMKVWSYEKAARFLKNLDVDLDHLSKTKSASLAAPTLSNLLHNEKLYGPTDRDPRTKRDDIHYFKYPHVYLYDLWQTWAPIITLEWKPQELTNLDELPYPILKIGSFGRCPFIGDRNYDESSYKRVVKRYSRDKANKKYALQLRALFQYHADTLLNTSSVNDQTKNLIFIPHTCNDSTKSFKKWMQEKAKNFEKTELKKTDDSAVQDVRNEHADQTDEKNSILLNETETKEPPLKEEKENKQSIAEESNKYPQRKELAATPKLNHPVLATFARQETEEVPDDLCTLKTKSRQAFEIKASGAHQSNDVATSFGNGLGPTRASVMSKNMKSLSRLMVDRKLGVKQTNGNNKNYTATIATTAETSKENRHRLDFNALKKDEAPSKETGKDSAVHLETNRKPQNFPKVATKSVSADSKVHNDIKITTTESPTASKKSTSTNVTLHFNAQTAQTAQPVKKETVKNSGYCENCRVKYESLEQHIVSEKHLSFAENDLNFEAIDSLIENLRFQI"

# Reference: paper PMC9133112, “The structural basis of Cdc7-Dbf4 kinase dependent targeting and phosphorylation of the MCM2-7 double hexamer” (Nature Communications, 2022)
